Assay [1] deals with T1, IL-2 receptor (IL-2Rα, IL-2Rβ and IL-2Rγ) on cells (human, UniProt P01589 22-272; P14784 27-551; P31785 23-369).
T1 sequence (looked up) 1: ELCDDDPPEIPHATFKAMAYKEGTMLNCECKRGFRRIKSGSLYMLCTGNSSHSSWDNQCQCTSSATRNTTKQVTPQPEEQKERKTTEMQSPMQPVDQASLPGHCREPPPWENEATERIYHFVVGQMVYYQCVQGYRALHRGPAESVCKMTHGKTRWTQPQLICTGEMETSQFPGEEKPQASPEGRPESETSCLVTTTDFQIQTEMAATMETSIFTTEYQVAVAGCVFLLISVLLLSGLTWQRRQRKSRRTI
T1 sequence (looked up) 2: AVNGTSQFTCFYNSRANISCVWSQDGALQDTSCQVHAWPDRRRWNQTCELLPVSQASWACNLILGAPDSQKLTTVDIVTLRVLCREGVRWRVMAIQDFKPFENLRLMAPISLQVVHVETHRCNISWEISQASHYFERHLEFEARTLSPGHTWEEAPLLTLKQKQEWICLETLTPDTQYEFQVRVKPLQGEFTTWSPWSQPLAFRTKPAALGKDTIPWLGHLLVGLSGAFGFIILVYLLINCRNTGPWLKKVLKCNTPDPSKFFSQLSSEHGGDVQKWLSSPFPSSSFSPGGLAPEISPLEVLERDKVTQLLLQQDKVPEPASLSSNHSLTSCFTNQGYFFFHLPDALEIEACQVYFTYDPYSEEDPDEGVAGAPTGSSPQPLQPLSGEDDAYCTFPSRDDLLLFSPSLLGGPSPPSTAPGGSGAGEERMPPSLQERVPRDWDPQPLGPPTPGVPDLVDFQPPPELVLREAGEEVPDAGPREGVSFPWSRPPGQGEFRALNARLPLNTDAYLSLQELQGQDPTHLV
T1 sequence (looked up) 3: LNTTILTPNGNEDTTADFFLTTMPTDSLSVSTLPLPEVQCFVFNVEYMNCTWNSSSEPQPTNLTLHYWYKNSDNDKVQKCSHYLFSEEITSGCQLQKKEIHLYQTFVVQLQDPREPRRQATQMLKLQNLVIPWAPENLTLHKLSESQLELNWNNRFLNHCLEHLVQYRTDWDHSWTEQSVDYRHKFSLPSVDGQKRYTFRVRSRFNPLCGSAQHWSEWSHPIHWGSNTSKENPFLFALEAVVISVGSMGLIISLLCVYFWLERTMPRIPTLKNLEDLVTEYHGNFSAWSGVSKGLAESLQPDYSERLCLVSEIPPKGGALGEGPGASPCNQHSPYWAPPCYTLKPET
Kind of assay: cell-based or functional assay.

Assay [2] addresses T2, IL-2 receptor α subunit (IL-2Rα, CD25) on Kit225 cells (human, UniProt P01589 22-272).
T2 construct: whole, on cells; Kit225 cells express all three IL-2 receptor subunits, with IL-2Rα in ~10 fold excess; also called p55
T2 sequence (looked up): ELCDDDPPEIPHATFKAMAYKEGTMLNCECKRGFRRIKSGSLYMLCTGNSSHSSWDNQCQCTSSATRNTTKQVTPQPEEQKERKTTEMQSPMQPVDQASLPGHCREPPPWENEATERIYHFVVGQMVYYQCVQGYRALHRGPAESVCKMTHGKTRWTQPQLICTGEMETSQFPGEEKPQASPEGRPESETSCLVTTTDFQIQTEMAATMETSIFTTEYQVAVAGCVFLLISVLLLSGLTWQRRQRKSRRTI
Kind of assay: cell surface titration on Kit225 cells, flow cytometry with anti-FLAG detection. As to the method:
Determination of IL-2Rα binding affinities of IL-2 mutants. […] At low IL-2 mutant concentrations, the total volume was increased to maintain an excess number of IL-2 mutant molecules over the number of IL-2Rα. After incubation, cells were kept on ice and stained with mouse anti-FLAG monoclonal antibody M2 (Sigma Aldrich, St. Louis, Mo.), followed by an Alexa Fluor 488 conjugated goat anti-mouse antibody (Invitrogen, Carlsbad, Calif.), to detect cell-surface bound protein. The mean single-cell fluorescence was measured, and the dissociation constant (K_D) and the 95% confidence interval were determined as previously described, using the following equation: Fobs = cL_0/(K_D + L_0), where $Fobs$ is the background-corrected mean fluorescence, L_0 is the initial concentration of the protein being measured, and c is the proportionality constant.
The IL-2Rα binding affinity of the IL-2 mutants was measured in using Kit225 cells, a human T cell line that is dependent on IL-2 for growth. Kit225 constitutively expresses all three subunits of the IL-2 receptor, with IL-2Rα in ~10 fold excess. The IL-2Rα binding affinity was measured using cell surface titrations on Kit225.
For orientation: In flow cytometry, cells or beads pass a laser one at a time.

Assay [3] concerns the target T2, IL-2 receptor α subunit (IL-2Rα, CD25) …. Put plainly: cell surface titration on Kit225 cells (method not restated for the double mutant).

B1: Q126T (2-4 IL-2 with a Q126T point mutation) (ligand)
chain: APTSSSTKKTQLQLEHLLLDLQMILNGISNHKNPRLARMLTFKFYMPEKATELKHLQCLEEELKPLEEALRLAPSKNFHLRPRDLISDVNVIVLELKGSETTFMCEYADETATIVEFLNRWITFCTSIISTLT
What is called Kd is the constant that tells how readily two partners part at equilibrium. Low values mean a tighter complex, high ones a looser complex. As for B1, in assay [1], the “IC50 of inhibition of STAT5 phosphorylation in Kit225 cells with 25 pM wild type IL-2” value turned out to be 1.9 nM. In addition, the affinity in assay [2], expressed as Kd, was 0.109 nM.

B2: Q126T/V91R double mutant (ligand)
chain: APTSSSTKKTQLQLEHLLLDLQMILNGISNHKNPRLARMLTFKFYMPEKATELKHLQCLEEELKPLEEALRLAPSKNFHLRPRDLISDVNRIVLELKGSETTFMCEYADETATIVEFLNRWITFCTSIISTLT
Regarding B2, in assay [3], the Kd was determined as 2 nM.

B3: 2-4 IL-2 (engineered mutant of human IL-2 with high affinity for IL-2Rα) (ligand)
chain: APTSSSTKKTQLQLEHLLLDLQMILNGISNHKNPRLARMLTFKFYMPEKATELKHLQCLEEELKPLEEALRLAPSKNFHLRPRDLISDVNVIVLELKGSETTFMCEYADETATIVEFLNRWITFCQSIISTLT
For B3, the Kd in assay [2] stood at 0.199 nM.

B4: V91R (2-4 IL-2 with a V91R point mutation) (ligand)
chain: APTSSSTKKTQLQLEHLLLDLQMILNGISNHKNPRLARMLTFKFYMPEKATELKHLQCLEEELKPLEEALRLAPSKNFHLRPRDLISDVNRIVLELKGSETTFMCEYADETATIVEFLNRWITFCQSIISTLT
B4: the “IC50 of inhibition of STAT5 phosphorylation in Kit225 cells with 25 pM wild type IL-2” value in assay [1] is 2.4 nM. Besides, in assay [2], binding was characterised by a dissociation constant (Kd) of 0.119 nM.

These data come from US8906356 (MIT, dated 2014).
